Assay [1] concerns the target T1, HTRA1 (Homo sapiens, UniProt Q92743).
T1 construct: purchased R & D
Kind of assay: Co-incubation of recombinant TSP1 or TSP2 with recombinant HTRA1 (Coomassie staining, Western blot). It counts as biochemical. The conditions noted are these: co-incubation at 37° C. for 24 h, Coomassie gel. Here is the method:
WB analysis was performed using a monoclonal anti-TSP1 antibody (Abeam), as previously described (Houssier et al., PLoS Med. 2008, 5:e39). RT-PCRs primers were ordered from Taqman, reference: Hs01016151_m1.
Western blot analysis of the proteins confirmed the disappearance of the whole sized TSP1 and the appearance of several smaller bands in the co-incubated condition (FIG. 3A). […] Next the functionality of rTSP1 and HTRA1-digested TSP1 was analyzed in laser-induced subretinal inflammation in vivo. […] Accordingly, associated choroidal neovascularization, measured as the surface covered by CD102^−CNV on choroidal flatmounts at d7, underwent the same differences (FIG. 3D).

The target of assay [2] is T1, HTRA1. Kind of assay: HTRA1 cleavage sites of TSP1 by LC-MS/MS. Format: biochemical. Conditions: post-digestion fragments. How it is done: Proteins were submitted to reduction by incubation with 5 mM dithiotreitol in 50 mM ammonium bicarbonate (AmBic) for 30 min at 37° C., then alkylation with 15 mM iodoacetamide in 50 mM AmBic for 30 min, RT. Tryptic digestion was performed with a protein/enzyme ratio of 25/1 at 37° C. overnight in 50 mM AmBic.
Peptide mixtures were supplemented with formic acid to a final concentration of 0.1% and analyzed on a U3000 nanoLC (Thermo) coupled to an HCTultra ion trap (Bruker). Peptides were concentrated and desalted for 5 min on a precolumm RP-C18 (5 mm, 300 μm i.d., 100 Å, Thermo) with a mobile phase A (2% ACN/0.1% formic acid) at a flow rate of 20 μL/min then separated on an analytical column RP-C18 (15 cm, 75 μm i.d., 100 Å, Dionex) at a flow rate of 300 nL/min. Elution gradient was run from 2% to 10% of solvent B (95% ACN/0.1% formic acid) in 10 min then 10% to 35% B in 60 min and 35% to 50% B in 10 min. The ion trap was used in the positive mode with the selection of 8 precursors from each MS spectrum for fragmentation by collision induced dissociation (CID). […]
Tryptic peptides were also analyzed by MALDI-TOF MS on an Autoflex speed (Bruker) in positive reflectron mode in the mass range 700-4000 m/z using α-Cyano-4-hydroxycinnamic acid as the matrix (0.9 mg/mL CHCA in 85% CAN, 0.1% TFA, 10 mM ammonium phosphate). […]

Assay [3] deals with subretinal IBA-1+ MPs. In words: Laser-injury model in Cx3cr1GFP/GFP mice. It counts as in vivo, mouse. Conditions: 2 μl intravitreal at day 4 and day 7, day 10, vs PBS or 4NGG. Here is the method: Laser-coagulations were performed with a 532 nm ophtalmological laser mounted on an operating microscope (Vitra Laser, 532 nm, 450 mW, 50 ms, and 250 μm): Intravitreal injections of 2 μl of HTRA1 and/or TSP1 were performed using glass capillaries (Eppendorf) and a micro injector. The 2 μl injection solution contained 50 μg/ml TSP1 and HTRA1, corresponding to an intraocular concentration of 5 μg/ml of each protein assuming their dilution by approximately 1/10th in the intra-ocular volume. […] A volume of 2 μl of a 100 μM solution of either PBS, recombinant TSP1 (10 μg/ml), the 4NGG control peptide or the CD47-activating peptide PKT16 (200 μM) was injected at day 4 (when MP infiltration is maximal) and day 7 after the injury and evaluated subretinal inflammation on flatmounted RPE/choroidal flatmounts at day 10.
Eyes were enucleated, fixed in 4% PFA 30 minutes and sectioned at the limbus; the cornea and lens were discarded. […] Choroids and retinas were flatmounted and viewed with a fluorescence microscope DM5500B (Leica). IBA-1+ cells were counted on whole RPE/choroidal flatmounts and on the outer segment side of the retina. […]

The target of assay [4] is CD47 (Homo sapiens, UniProt Q08722). The conditions noted are these: comparison in words, no test described; cited from earlier work.

Here are results for one substance from patent publication US11142548B2, “Agents that activate CD47 and their use in the treatment of inflammation” (SORBONNE UNIVERSITE, priority 2016, dated 2021).

T1 sequence (Q92743 23-480): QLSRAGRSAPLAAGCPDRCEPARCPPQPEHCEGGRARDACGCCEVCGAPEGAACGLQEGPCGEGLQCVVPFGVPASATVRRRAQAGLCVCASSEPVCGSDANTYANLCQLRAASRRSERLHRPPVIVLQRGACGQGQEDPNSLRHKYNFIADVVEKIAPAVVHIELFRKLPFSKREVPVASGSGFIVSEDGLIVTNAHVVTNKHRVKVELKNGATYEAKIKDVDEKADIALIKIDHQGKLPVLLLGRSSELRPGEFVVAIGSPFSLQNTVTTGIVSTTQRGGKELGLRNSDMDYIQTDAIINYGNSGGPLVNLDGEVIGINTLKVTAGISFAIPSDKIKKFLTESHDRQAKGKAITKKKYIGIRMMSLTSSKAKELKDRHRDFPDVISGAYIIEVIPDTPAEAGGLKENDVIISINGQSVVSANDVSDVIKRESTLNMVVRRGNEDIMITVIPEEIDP
CD47, sequence (Q08722 19-323, species assumed): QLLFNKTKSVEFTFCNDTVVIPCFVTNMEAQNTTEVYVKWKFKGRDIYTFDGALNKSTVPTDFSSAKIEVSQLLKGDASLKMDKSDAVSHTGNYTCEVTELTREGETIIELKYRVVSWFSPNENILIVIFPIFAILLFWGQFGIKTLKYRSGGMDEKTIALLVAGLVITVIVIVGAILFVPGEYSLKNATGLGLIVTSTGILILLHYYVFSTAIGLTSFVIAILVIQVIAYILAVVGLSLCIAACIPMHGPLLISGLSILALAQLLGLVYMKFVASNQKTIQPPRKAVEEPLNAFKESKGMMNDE

As for “recombinant TSP1: recombinant human TSP1 (R&D Systems), natural ligand and agonist of CD47”, the “degradation by recombinant HTRA1” value in assay [1] is reported as “degrades”. In addition, the “distinct sites proteolyzed by HTRA1” value in assay [2] was found to be 5 sites. Also, the “elimination of subretinal IBA-1+ MPs adjacent to the laser impact” value in assay [3] was “eliminated significantly more efficiently”. Moreover, the “half maximal effective concentration (EC50) relative to CD47-activating peptides or TSP2” value in assay [4] is “much lower”.
